Laboratory results: patent publication US20080299666A1, “Novel Peptide-Based Borono-Lectin (PBL) Sensors” (University of South Carolina, priority 2007, published 2008)

Experiments:
[1] = binding with fructose at pH=8; 480 nm to 450 nm; cited from earlier work
[2] = Binding of control proteins to the PBL library; details: fluorescently labeled protein
Description: To minimize non-specific binding, the resin was pre-incubated with 1% BSA. When binding glycoproteins to the library (about 10 min. to 12 hr—about 1 ng/mL to 1 mg/mL), 1% BSA and 10% glycerol were also included. The resin was washed extensively with phosphate buffered saline (PBS) after binding.

[3] = Non-specific binding and BSA blocking: FITC-BSA and FITC-Ovalbumin on PBL library, bead fluorescence; details: for Mean of luminosity of fluorescent beads: exposure time 832 ms; for Binding to PBL library by bead fluorescence (non-specific vs specific): exposure time 62.4 ms
Text: On the other hand, we used the PBL library to bind FITC labeled bovine serum album (BSA) to observe non-specific binding. There should not be binding between them because there are no carbohydrates on BSA. The experimental results were compared in FIG. 2.14. […] That means the amount of non-specific binding is less than specific binding. In order to see whether the blocking PBL library with BSA is useful to prevent the non-specific binding, we compared the binding samples with and without blocking with BSA. Two fluorescently labeled proteins were used: FITC-BSA and FITC-Ovalbumin. In FIG. 2.14, it is not easy to differentiate the images 2 and 3 under 62.4 ms exposure time. We increased the exposure time to 832 ms and compared quantitatively the luminosity of fluorescent beads (with red circles). The mean of luminosity for image 2 is 63.57 and 38.84 for image 3; while for image 4 and 5, they are 38.63 and 19.86 respectively. […] In one experiment (Table 2.2, row 1 and 4), we counted the rate of hits which decreased when the PBLs were blocked with BSA.

[4] = PBL library response to FITC-tagged CEA at varying concentrations; type: binding
Text: Higher sensitivity is achieved using longer integration times on the camera to image the beads, up to 25 ms to obtain the 10 pg/mL image.

[5] = Detection limit of fluorescently-labeled glycoproteins bound to PBL library beads (fluorescence microscopy); type: binding
Description: To determine how low the concentration is at which we can still differentiate the fluorescence of the beads, the PBL library beads were blocked with 1% BSA and then incubated with varying concentration of FITC-labeled ovalbumin, PSM and CEA and CR-labeled ovalbumin and PSM with the addition of 10% (v/v) glycerol overnight. After washing away unbound glycoproteins, fluorescence images were obtained. The PBL library without addition of glycoprotein was used as a control sample. Here, the limit of glycoprotein detection is defined as the lowest concentration of fluorescently-labeled glycoproteins at which their binding to PBL library beads can give enough fluorescence intensity for visual observation. However, the concentration limits are also exposure time dependent, e.g., for FITC-Ovalbumin, and FITC-BSM, the lowest concentrations for visual observation of fluorescence under exposure time 252 ms are about 10 μg/ml, but if the exposure time was increased, the fluorescence can be observed even under dilute concentration. For instance, for FITC-Ovalbumin, the detection limit will lower to about 0.1 μg/ml when exposure time is increased to 4.69 s (FIGS. 2.15, 2.16 and Table 2.3). For FITC-CEA, if observed under 252 ms, the fluorescence of beads is strong. Its concentration limit is about 0.1 (μg/ml) under this exposure time (FIG. 2.17). Stronger fluorescence from FITC-CEA if under the same exposure time as others may be due to CEA having more terminal glycans compared to others.
For CR-glycoproteins, since the PBL library itself is lightly fluorescent under excitation wavelength=510-560 nm, in order to avoid high background interference, we chose comparatively lower exposure time (62.4 ms) when we took the images (FIGS. 2.18 and 2.19). Under this exposure time, the concentration limits for CR-Ovalbumin and CR-PSM were 1 μg/ml (Table 2.3). If we mention the concentration limit of screening, we mention exposure time because the concentration limit is exposure dependent.
FITC-glycoprotein or CR-glycoprotein solution was added into the borono-peptide beads and tumbled overnight at room temperature. The beads were then washed by PBS buffer (0.1M, pH=7.3 150 mM NaCl) (for CR-glycoproteins, beads were washed with methanol first and then washed with PBS buffer) and beads were observed under fluorescence microscope (Nikon, eclipse, E600) and pictures were taken.

[6] = PBL library blocked with BSA (images 3 and 5)
[7] = without BSA blocking (images 2 and 4)

Molecule: CN(C)c1ccc(/C=C/c2ccc(B(O)O)cc2)cc1 [DSTBA, 4′-Dimethylaminostilbene-4-boronic acid]
- Blue shift of the emission [1]: 30 nm

Molecule: FITC-BSA: FITC labeled bovine serum albumin, not a glycoprotein [reference compound]
- Binding to the PBL library (qualitative) [2]: no appreciable binding
- Mean of luminosity of fluorescent beads [3, 6]: 38.84
- Binding to PBL library by bead fluorescence (non-specific vs specific) [3]: non-specific binding is minimal
- Mean of luminosity of fluorescent beads [3, 7]: 63.57

B1: FITC-CEA: Carcinoembryonic antigen labeled with FITC (conjugate, UniProt P06731 35-685, looked up)
Cell adhesion molecule CEACAM5: KLTIESTPFNVAEGKEVLLLVHNLPQHLFGYSWYKGERVDGNRQIIGYVIGTQQATPGPAYSGREIIYPNASLLIQNIIQNDTGFYTLHVIKSDLVNEEATGQFRVYPELPKPSISSNNSKPVEDKDAVAFTCEPETQDATYLWWVNNQSLPVSPRLQLSNGNRTLTLFNVTRNDTASYKCETQNPVSARRSDSVILNVLYGPDAPTISPLNTSYRSGENLNLSCHAASNPPAQYSWFVNGTFQQSTQELFIPNITVNNSGSYTCQAHNSDTGLNRTTVTTITVYAEPPKPFITSNNSNPVEDEDAVALTCEPEIQNTTYLWWVNNQSLPVSPRLQLSNDNRTLTLLSVTRNDVGPYECGIQNELSVDHSDPVILNVLYGPDDPTISPSYTYYRPGVNLSLSCHAASNPPAQYSWLIDGNIQQHTQELFISNITEKNSGLYTCQANNSASGHSRTTVKTITVSAELPKPSISSNNSKPVEDKDAVAFTCEPEAQNTTYLWWVNGQSLPVSPRLQLSNGNRTLTLFNVTRNDARAYVCGIQNSVSANRSDPVTLDVLYGPDTPIISPPDSSYLSGANLNLSCHSASNPSPQYSWRINGIPQQHTQVLFIAKITPNNNGTYACFVSNLATGRNNSIVKSITVSASGTSPGLSA
modifications: FITC label
- PBL library response (microscope image) ([4]; 10 pg/mL CEA, integration times up to 25 ms): responding
- PBL library response (microscope image) ([4]; 10 ng/mL CEA): responding

B2: FITC-Oval: conjugate of fluorescein isothiocyanate and chicken ovalbumin (conjugate, UniProt P01012 2-386, looked up)
Ovalbumin: GSIGAASMEFCFDVFKELKVHHANENIFYCPIAIMSALAMVYLGAKDSTRTQINKVVRFDKLPGFGDSIEAQCGTSVNVHSSLRDILNQITKPNDVYSFSLASRLYAEERYPILPEYLQCVKELYRGGLEPINFQTAADQARELINSWVESQTNGIIRNVLQPSSVDSQTAMVLVNAIVFKGLWEKAFKDEDTQAMPFRVTEQESKPVQMMYQIGLFRVASMASEKMKILELPFASGTMSMLVLLPDEVSGLEQLESIINFEKLTEWTSSNVMEERKIKVYLPRMKMEEKYNLTSVLMAMGITDVFSSSANLSGISSAESLKISQAVHAAHAEINEAGREVVGSAEAGVDAASVSEEFRADHPFLFCIKHIATNAVLFFGRCVSP
modifications: FITC label
notes: conjugate of fluorescein isothiocyanate and chicken ovalbumin
- Concentration limit (detection limit) ([5]; FITC label, exposure time 4.69 s): about 0.1 μg/ml
- Concentration limit (detection limit) ([5]; FITC label, exposure time 252 ms, beads blocked with 1% BSA, 10% (v/v) glycerol, overnight): 10 µg/mL
- Concentration limit (detection limit) ([5]; FITC label, exposure time 252 ms, beads blocked with 1% BSA, 10% (v/v) glycerol, overnight, listed as FITC-Ovalbumin): about 10 μg/ml
- Mean of luminosity of fluorescent beads [3, 6]: 19.86
- Binding to PBL library by bead fluorescence (non-specific vs specific) [3]: fluorescence can be observed clearly
- Mean of luminosity of fluorescent beads [3, 7]: 38.63

B3: CR-Oval: ovalbumin labeled with carboxyrhodamine (conjugate, UniProt P01012 2-386, looked up)
Ovalbumin: B2 Ovalbumin
modifications: carboxyrhodamine label
notes: ovalbumin labeled with carboxyrhodamine
- Concentration limit (detection limit) ([5]; CR label, exposure time 62.4 ms, beads blocked with 1% BSA, 10% (v/v) glycerol, overnight): 1 µg/mL
